In the assay the target is T1, HLA-A*02:01 (peptide-receptive MHC class I monomer after UV cleavage of the UV-sensitive ligand) (human).
T1 construct: MHC monomers loaded by UV-ligand exchange and captured on streptavidin plates
The assay is described as follows: UV ligand-exchange ELISA; exchange yield grade (+ >=10%, ++ >=20%, +++ >=50%, ++++ >=75%). An excerpt:
Candidate peptides for T cell based therapies according to the present invention were further tested for their MHC binding capacity (affinity). The individual peptide-MHC complexes were produced by UV-ligand exchange, where a UV-sensitive peptide is cleaved upon UV-irradiation, and exchanged with the peptide of interest as analyzed. Only peptide candidates that can effectively bind and stabilize the peptide-receptive MHC molecules prevent dissociation of the MHC complexes. To determine the yield of the exchange reaction, an ELISA was performed based on the detection of the light chain (β2m) of stabilized MHC complexes. The assay was performed as generally described in Rodenko et al. (Rodenko et al., 2006).
96 well MAXISorp plates (NUNC) were coated over night with 2 ug/ml streptavidin in PBS at room temperature, washed 4× and blocked for 1 h at 37° C. in 2% BSA containing blocking buffer. Refolded HLA-A*02:01/MLA-001 monomers served as standards, covering the range of 15-500 ng/ml. Peptide-MHC monomers of the UV-exchange reaction were diluted 100 fold in blocking buffer. Samples were incubated for 1 h at 37° C., washed four times, incubated with 2 ug/ml HRP conjugated anti-β2m for 1 h at 37° C., washed again and detected with TMB solution that is stopped with […]. Absorption was measured at 450 nm. Candidate peptides that show a high exchange yield (preferably higher than 50%, most preferred higher than 75%) are generally preferred for a generation and production of antibodies or fragments thereof, and/or T cell receptors or fragments thereof, as they show sufficient avidity to the MHC molecules and prevent dissociation of the MHC complexes.
(ELISA stands for enzyme-linked immunosorbent assay.)

SLQDHLEKV [SLQDHLEKV (SEQ ID NO: 103)] registered a peptide exchange yield of 50 to 75%.
To VIFSYVLGV [VIFSYVLGV (SEQ ID NO: 130)] belongs 50 to 75%; to ALTGLQFQL [ALTGLQFQL (SEQ ID NO: 135)], 50 to 75%.
To AISEAQESV [AISEAQESV (SEQ ID NO: 122)] belongs 20 to 50%; to GLLLLVPLL [GLLLLVPLL (SEQ ID NO: 12)], 50 to 75%.
To FLGVVVPTV [FLGVVVPTV (SEQ ID NO: 124)] belongs 50 to 75%.
On to FVAPPTAAV [FVAPPTAAV (SEQ ID NO: 125)], for which the peptide exchange yield was in the range of 50 to 75%.
In the case of FVIDSFEEL [FVIDSFEEL (SEQ ID NO: 113)] it was 50 to 75%.
GLSEYQRNFL [GLSEYQRNFL (SEQ ID NO: 147)] returned a peptide exchange yield of 50 to 75%.
In the case of IIIEDLLEA [IIIEDLLEA (SEQ ID NO: 15)] it was at least 75%; in that of YQYPFVLGL [YQYPFVLGL (SEQ ID NO: 110)], at least 75%; in that of HLMEENMIVYV [HLMEENMIVYV (SEQ ID NO: 127)], 50 to 75%.
To KLLKGIYAI [KLLKGIYAI (SEQ ID NO: 153)] belongs 50 to 75%; to SLFEASQQL [SLFEASQQL (SEQ ID NO: 129)], 50 to 75%; to GLLHEVVSL [GLLHEVVSL (SEQ ID NO: 145)], 50 to 75%.
To NLINNIFEL [NLINNIFEL (SEQ ID NO: 138)] belongs at least 75%; to GLSDISPST [GLSDISPST (SEQ ID NO: 114)], 20 to 50%.
In turn, ILSEKEYKL [ILSEKEYKL (SEQ ID NO: 150)] registered a peptide exchange yield of 50 to 75%.
For VLYELLQYI [VLYELLQYI (SEQ ID NO: 106)], the peptide exchange yield is at least 75%.
To LLSDPTPGA [LLSDPTPGA (SEQ ID NO: 14)] belongs 20 to 50%.
In the case of VLIEETDQL [VLIEETDQL (SEQ ID NO: 131)] it was 20 to 50%; in that of LLSGQLPTI [LLSGQLPTI (SEQ ID NO: 1)], 50 to 75%.
To SLLDNLLTI [SLLDNLLTI (SEQ ID NO: 116)] belongs 50 to 75%; to FLLVGTQIDL [FLLVGTQIDL (SEQ ID NO: 10)], 50 to 75%; to FLASPLVAI [FLASPLVAI (SEQ ID NO: 139)], at least 75%.
Molecule ALLSAFVQL [ALLSAFVQL (SEQ ID NO: 123)] showed a peptide exchange yield of 50 to 75%.
In the case of YLAPENGYLM [YLAPENGYLM (SEQ ID NO: 108)] it was 50 to 75%; in that of ILVKQSPML [ILVKQSPML (SEQ ID NO: 151)], 50 to 75%; in that of HLVPASWKL [HLVPASWKL (SEQ ID NO: 13)], 50 to 75%.
ICAGHVPGV [ICAGHVPGV (SEQ ID NO: 148)] gave a peptide exchange yield of 50 to 75%.
In the case of TLHAVDVTL [TLHAVDVTL (SEQ ID NO: 143)] it was 50 to 75%; in that of VLDGMIYAI [VLDGMIYAI (SEQ ID NO: 118)], 50 to 75%.
In the case of FLAILPEEV [FLAILPEEV (SEQ ID NO: 112)] it was 50 to 75%.
To VLLGTTWAL [VLLGTTWAL (SEQ ID NO: 120)] belongs 50 to 75%; to GLITQVDKL [GLITQVDKL (SEQ ID NO: 144)], 50 to 75%; to VLATILAQL [VLATILAQL (SEQ ID NO: 117)], at least 75%.
Consider SLDQSTWNV [SLDQSTWNV (SEQ ID NO: 101)], for which the peptide exchange yield is at least 75%.
To YLTGYNFTL [YLTGYNFTL (SEQ ID NO: 121)] belongs 50 to 75%; to FLFEDFVEV [FLFEDFVEV (SEQ ID NO: 140)], 50 to 75%.
In the case of KIMYTLVSV [KIMYTLVSV (SEQ ID NO: 152)] it was 20 to 50%; in that of VLLGLPLLV [VLLGLPLLV (SEQ ID NO: 104)], 50 to 75%; in that of KLMNIQQQL [KLMNIQQQL (SEQ ID NO: 154)], 50 to 75%.
In the case of FLYEDSKSVRL [FLYEDSKSVRL (SEQ ID NO: 142)] it was 50 to 75%; in that of FLGELTLQL [FLGELTLQL (SEQ ID NO: 141)], 50 to 75%.
Take VQAVSIPEV [VQAVSIPEV (SEQ ID NO: 107)]: the peptide exchange yield was in the range of 50 to 75%.
To GLDTVVALL [GLDTVVALL (SEQ ID NO: 11)] belongs 50 to 75%; to ALEELTGFREL [ALEELTGFREL (SEQ ID NO: 133)], 20 to 50%; to VLQDQVDEL [VLQDQVDEL (SEQ ID NO: 132)], 20 to 50%.
In the case of FIQQERFFL [FIQQERFFL (SEQ ID NO: 137)] it was 50 to 75%.
To FIFGIVHLL [FIFGIVHLL (SEQ ID NO: 136)] belongs 50 to 75%; to LLIDIIHFL [LLIDIIHFL (SEQ ID NO: 115)], at least 75%; to ILNPVTTKL [ILNPVTTKL (SEQ ID NO: 149)], 50 to 75%.
As to YLLDTLLSL [YLLDTLLSL (SEQ ID NO: 111)], the peptide exchange yield lay within 50 to 75%.
In the case of GLLQQPPAL [GLLQQPPAL (SEQ ID NO: 146)] it was 50 to 75%; in that of SLFAAISGMIL [SLFAAISGMIL (SEQ ID NO: 102)], 50 to 75%.
To ELCDIILRV [ELCDIILRV (SEQ ID NO: 119)] belongs 50 to 75%; to KLFDASPTFFA [KLFDASPTFFA (SEQ ID NO: 128)], 50 to 75%; to YLFQFSAAL [YLFQFSAAL (SEQ ID NO: 109)], 50 to 75%.
To VLTPVILQV [VLTPVILQV (SEQ ID NO: 105)] belongs 50 to 75%; to ALGRLGILSV [ALGRLGILSV (SEQ ID NO: 134)], 50 to 75%.

The values are drawn from patent US20170296640A1 (IMMATICS BIOTECHNOLOGIES, published 2017).
